Test results as given in IntAct's records for PubMed 34591612.

Sequence of Neurabin-2 (Homo sapiens), Q96SB3 F451A (Q96SB3 whole entry F451A): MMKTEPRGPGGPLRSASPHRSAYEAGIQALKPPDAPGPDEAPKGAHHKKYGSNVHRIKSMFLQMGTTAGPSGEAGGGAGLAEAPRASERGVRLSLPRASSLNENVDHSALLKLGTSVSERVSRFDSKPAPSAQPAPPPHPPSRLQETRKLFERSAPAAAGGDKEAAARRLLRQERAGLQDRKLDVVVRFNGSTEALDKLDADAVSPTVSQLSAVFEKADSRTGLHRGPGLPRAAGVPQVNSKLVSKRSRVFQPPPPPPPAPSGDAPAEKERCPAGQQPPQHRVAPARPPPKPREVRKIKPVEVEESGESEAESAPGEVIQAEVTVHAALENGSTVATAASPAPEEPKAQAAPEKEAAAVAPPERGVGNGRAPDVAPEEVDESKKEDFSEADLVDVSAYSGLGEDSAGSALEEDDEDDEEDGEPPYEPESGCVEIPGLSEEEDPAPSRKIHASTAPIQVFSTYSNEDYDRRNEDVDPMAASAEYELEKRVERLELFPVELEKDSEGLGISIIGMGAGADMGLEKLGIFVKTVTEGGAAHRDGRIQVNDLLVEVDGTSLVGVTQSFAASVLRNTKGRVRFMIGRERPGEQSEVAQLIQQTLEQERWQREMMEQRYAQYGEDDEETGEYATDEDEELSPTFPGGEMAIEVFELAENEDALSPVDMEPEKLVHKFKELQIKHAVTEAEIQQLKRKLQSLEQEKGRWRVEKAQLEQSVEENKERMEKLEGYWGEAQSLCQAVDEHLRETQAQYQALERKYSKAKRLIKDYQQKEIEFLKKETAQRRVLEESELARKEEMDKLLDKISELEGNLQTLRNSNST

The substances below were run against brca1_human BRCA1 (UniProt P38398).
Sequence of brca1_human BRCA1 (P38398 whole entry, looked up): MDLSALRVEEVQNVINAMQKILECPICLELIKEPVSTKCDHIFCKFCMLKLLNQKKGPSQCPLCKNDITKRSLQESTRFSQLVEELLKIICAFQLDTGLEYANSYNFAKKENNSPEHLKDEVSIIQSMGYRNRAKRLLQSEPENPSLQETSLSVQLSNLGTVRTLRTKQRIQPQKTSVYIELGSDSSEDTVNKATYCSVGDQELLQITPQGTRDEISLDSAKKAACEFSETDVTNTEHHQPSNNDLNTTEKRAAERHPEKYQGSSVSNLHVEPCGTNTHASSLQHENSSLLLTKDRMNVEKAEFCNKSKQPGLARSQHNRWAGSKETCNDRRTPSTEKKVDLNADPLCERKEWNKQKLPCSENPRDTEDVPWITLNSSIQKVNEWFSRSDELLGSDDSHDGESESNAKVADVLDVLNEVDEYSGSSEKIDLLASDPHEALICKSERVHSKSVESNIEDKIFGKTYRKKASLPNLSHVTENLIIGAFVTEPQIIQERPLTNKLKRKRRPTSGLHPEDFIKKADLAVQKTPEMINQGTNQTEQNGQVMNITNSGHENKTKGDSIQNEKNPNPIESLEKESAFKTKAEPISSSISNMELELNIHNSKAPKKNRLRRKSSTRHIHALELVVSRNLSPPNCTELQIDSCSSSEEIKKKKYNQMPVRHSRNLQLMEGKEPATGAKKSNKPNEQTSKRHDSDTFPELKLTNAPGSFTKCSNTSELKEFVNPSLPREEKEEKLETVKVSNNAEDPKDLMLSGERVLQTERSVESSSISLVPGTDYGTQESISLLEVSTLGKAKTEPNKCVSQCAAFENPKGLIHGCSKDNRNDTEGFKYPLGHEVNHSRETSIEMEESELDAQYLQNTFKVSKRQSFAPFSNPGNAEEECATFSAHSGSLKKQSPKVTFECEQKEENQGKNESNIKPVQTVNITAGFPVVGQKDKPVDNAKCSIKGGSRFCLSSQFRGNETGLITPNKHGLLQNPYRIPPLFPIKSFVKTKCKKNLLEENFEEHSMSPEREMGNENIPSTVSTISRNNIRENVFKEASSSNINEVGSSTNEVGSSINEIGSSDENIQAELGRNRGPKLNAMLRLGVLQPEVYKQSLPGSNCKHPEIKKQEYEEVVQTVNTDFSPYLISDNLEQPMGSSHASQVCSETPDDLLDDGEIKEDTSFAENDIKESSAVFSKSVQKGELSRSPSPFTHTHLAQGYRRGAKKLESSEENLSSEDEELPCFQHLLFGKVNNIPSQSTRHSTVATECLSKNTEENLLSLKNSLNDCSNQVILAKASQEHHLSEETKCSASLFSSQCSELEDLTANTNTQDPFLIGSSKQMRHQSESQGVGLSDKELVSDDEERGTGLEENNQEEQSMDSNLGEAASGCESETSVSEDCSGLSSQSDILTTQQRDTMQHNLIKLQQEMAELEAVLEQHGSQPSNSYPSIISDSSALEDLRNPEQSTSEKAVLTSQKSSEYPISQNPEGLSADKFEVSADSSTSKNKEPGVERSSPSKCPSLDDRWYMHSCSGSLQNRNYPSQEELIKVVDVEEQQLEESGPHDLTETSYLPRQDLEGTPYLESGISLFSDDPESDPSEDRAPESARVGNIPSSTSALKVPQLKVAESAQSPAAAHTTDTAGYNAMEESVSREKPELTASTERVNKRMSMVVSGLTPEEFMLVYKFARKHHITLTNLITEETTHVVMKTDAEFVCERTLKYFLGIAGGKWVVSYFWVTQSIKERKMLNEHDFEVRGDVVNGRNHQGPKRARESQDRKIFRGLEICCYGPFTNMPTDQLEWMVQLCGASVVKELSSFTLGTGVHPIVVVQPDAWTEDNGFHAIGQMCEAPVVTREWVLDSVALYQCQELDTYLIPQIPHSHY
For Neurabin-2 (Homo sapiens), Q96SB3 S635A, the “effect of a mutation on the interaction” value was “disrupting interaction”. In the case of Neurabin-2 (Homo sapiens), Q96SB3 F451A, the “effect of a mutation on the interaction” value is reported as “increasing interaction”. Neurabin-2 (Homo sapiens), Q96SB3 S248A was tested, and the “effect of a mutation on the interaction” value was “increasing interaction”. For Neurabin-2 (Homo sapiens), Q96SB3 S212A, the “effect of a mutation on the interaction” value was “decreasing interaction”.
